Test results reported in patent US20260022144A1, “ANALGESIC POLYPEPTIDE” (Shanghai Puyou Biomedical Co., Ltd., priority 2022, published 2026).

Test system: bone pain model induced by Walker 256 breast cancer cells in rats
Test: Bone pain model induced by Walker 256 breast cancer cells in rats, mechanical allodynia test
Assay type: in vivo, rat
Details: Wistar rats; for pain thresholds (50% PWT) of treatment group vs model group: 60 mg/kg i.v. once a day
Procedure: 28 female Wistar rats in total were randomly divided into 3 groups based on body weights, with 8 rats in the Sham group (Group 1, administered with vehicle (normal saline)), 10 rats in the model group (Group 2, administered with vehicle (normal saline)) and 10 rats in the treatment group (Group 3, administered with 60 mg SEQ ID NO: 29/kg).
A summary of the method for inducing bone pain model in rats by means of intratibial injection of a suspension of Walker 256 breast cancer cells is provided hereinafter. Briefly, the rats were anesthetized, then 4 μL of a suspension of Walker 256 cancer cells (containing about 4× 10^5 cells) was injected into the tibia cavity of the right hind limb of the rats (day 0). The rats in Sham group were injected with an equal volume of normal saline.
After injection of cancer cells (day 0), administration was started on the next day (day 1) and performed once a day for a consecutive period of 14 days (day 1, day 2 . . , day 14, respectively).
The rats were subjected to mechanical allodynia tests 1 h before and after administration of the test articles according to the method as recited in Example 1 on day 7 (D7) and day 14 (D14), respectively.

B1: SEQ ID NO: 29: exemplary polypeptide of the present disclosure; artificial polypeptide of formula (I) X-Y (protein)
chain: SEKKQPVDLGLLEEDDEFEEFPAEDWAGLDEDEDAHVWEDNWDDDNVEDDFSNQLRATVLLMILVAETPYGAYVLHQKGRMASAFLAA
- course of pain thresholds (50% PWT) of treatment group vs model group (60 mg/kg i.v. once a day for 14 days): increased gradually with the increase of the number of administrations
- pain thresholds (50% PWT) of treatment group vs model group (1 h after administration on day 7 (D7)): increased significantly
- pain thresholds (50% PWT) of treatment group vs model group (1 h after administration on day 14 (D14)): increased significantly
- pain thresholds (50% PWT) of treatment group vs model group (before administration on day 7 (D7)): no significant difference
- pain thresholds (50% PWT) of treatment group vs model group (before administration on day 14 (D14)): increased significantly
